Assay: label from the status in PepcDB records
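Note: failed if final PepcDB status was selected cloned or expressed and not failed if soluble or beyond.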

Sequence | protein production
MNRKLRRANLKASEPTPHETGNVINYMRQGRYAEAAHLAKGLTERFPDHGFGWKILGICTLLLGQNGDALPLFLKAAGLLPDDPDIHCNIGIIYYELNQLNEAEYYCRYALKLRPNDAIAHNNLGNILSSLGRLDEAEACFRRAIENNPDLAQAHYNLGSALQALGRLEEAESCYRRATAIRPTYEEAYASLGNVLKEMGRLDEALESWKLSLAHQEDWTNALRRLTNPLLMDGDLTRGPEYPAADAAEGQPRQLSSHPAAASVESLDRKYRVPSHGHDGSAEAGAVAGRDENAPRPLRIVLVYPPLWQIPSADLAVPEGMPFGPPATAGGPVAISRELKTITQGVLSIAAQAKKAGHDVRVYNLFNAPWADIVALIAGTGADVYGVSAYNSNRRGMGALCALIRQYHPHAHITVGGPFATTLPLETLRYYRAIDTVVVGEGEETFMELLDHIRSHRPAVGIPGTAWRNGDEVALGPVRPRIGDLDTLASHFDYYSSNIVMTSRGCPSKCSFCGNPVLWGRKIRFYSTDYCIDMFRKALARLPVPYLMIADDTFTANQQRTLNMCDAIIGNKLDFLWSCSTRVDAMEDKVLHRMRRAGCQEIMIGVESGSPEILERIHKGITPEMVLTVTRAAKKYGMLVHYYMMVINRGETPDTLQASIDLIKAGRPNSYDLTPLMFLPGTEDYGHLCEQQGLTSDIFFRNDFMDISVERKRKKDLDTVMQHLYCSIGTIGGYEYTVAEREAVVEHLPDVPTVHVELANAYLRAGQLDKATAALTRAEELGFPIGNIILNQHACIALARNQIDTSLDFLERACRSFPDVTVKGNYDKLAAWIDSRTSGQVKPCLLCDSVRAQDFVFRADETAP | failed
MNRLKNMSKYSDAKELASLTLGKKTEYANQYDPSLLQPVPRSLNRNDLHLSATLPFQGCDIWTLYELSWLNQKGLPQVAIGEVSIPATSANLIESKSFKLYLNSYNQTRFASWDEVQTRLVHDLSACAGETVTVNVKSLNEYTAEPIVTMQGECIDDQDIEIANYEFDDALLQGAAQGEEVSEVLHSHLLKSNCLITNQPDWGSVEIAYHGAKMNREALLRYLVSFREHNEFHEQCVERIFTDIMRYCQPQSLTVYARYTRRGGLDINPFRSSHQSAPNHNQRMARQ | not failed
MNRLQGMELFVEVARTLSFGRAAENLAIPKSTLSRQVAELERSVGLRLLSRTTRRVELTEAGQLYFERCQRIVAEARIAHEELQNLVETPSGPLRVNMPADFGTDFLSEAFTEFSRRYPEVTFYLDLASPEHAERVFQTCDVSIEIGDLPDSTHIARLLGVLPAHLYASPDYLARHGEPQHPDDLPRHECIQFRAGTGRVTRWPLNSGERHVEITPGNRFSVNSVSMVRNLATLGAGIAILAPMGNVREDIESGRLKRILPDWLAGPFPVYAVTDTRMLPAKTRIFVEFLMERLSNKTLAGQNNPAFLNLR | failed
MNRRKISALLLSCTLAMNISSFNEIVLADENKGEEVQKESHNESNCIAGDYHEVNNGNAKNTENTPVINGIKVNKQLIDINYSQGVTINPKYIVIHDTDNRQAGANAMANRNYFANHPNAKASAHYIIDEGNIIQALEDTWKGWHVGDGNNPNINNSTTIAIELCVNKENDFDKTLENGIELTKYLVNKYNIPAENVVMHRDASGKTCSRMMIEDRPSLWPYFKERISGGDGSLEDDGLKPKMQGKVTNASVLNVRESPSTSGRIVHKLNRNQVVGIYEELNGWYKIDYIDGVKKKYGYVSKDYISIINENPEDEETNGDIEIEKPSVSVNKQGIVKVNSALNMRSGPGSNYGVIGTLRNNDEVEIIKEVDGWYEIKFNGKSGYVSSQYIKVLDNESNEEKPVEPEKPSVSLNKQGVVKVNSALNMRSGPGSNYGVIGTLRNNDEVEIIKEVDGWYEIKFNGKSGYVSSQYIKVLDNESNEEKPVEPEKPSVSLNKQGVVKVNSALNMRSGPGSNYGVIGTLRNNDKVEIIKEVDGWYEIRFNGKVGYASKSYITIVNEGSNNGTDSVIKEGTVYGVSTNLNVRTGPGTSYQVIGYLLSGDKVKILGDENGWYKVQFNASTGTKNGYVSKDYIKV | failed
MNRRVVIVTAVHGPSAPFLPEAYASLCAQELPDGWEWRWVIQEDGRTQDVRPHVPDDPRVVFHQGRHGRQGGPGVARTMALAHADGAYVKVLDADDRLTPGALARDLAALEADPSIGWATSRVLDLLPDGSTAGFPGDPAHGPIERGEVLDFWRANGFRAQVHPATLLVRRDLLLAVGGWMALPASEDTGLLLALNCVSRGWFTEDVGLLYRKWEGQETGQASHVDPAERDARMTVVEARARALASFGWRLPEGTGDFDHLEHHHHHH | failed
MNRSFNIIISFKFIFWNMKSKPMNVIFDVLNEIHGFFGALWAGAALLNFLIKPQDKRQFERIGRFFLITSIITIITGIIIFAYIYLAPYQGNLFLVAAILRSSLDIRIRAFLNLIGGAFGLLAFGAGIVISNRIRLMVRVKEGDVTILELRNSVSNLSKISLVFLLISLAMMILAGSIAQVIT | failed
MNRSRDKVRCALNHQNAGSIPVDFGSTAVTGIHCRIVEALRNYYGLAPRPVKIVDAFQMLGEIDAELAEKIGVDCIGIGGPKDIFDLDTTRMHEQTTPWGQRVLVPEAMDLTPDMRGDVYVYAGGDQNYPPSAVMPKGCYFINAIERQQPIEEDRLDPEDNVEEFGLLTENDLAYYCAEADKAYQTGRAVVASFGGTALGDVAFVPGMGLKQPKGIRSVVEWYMSTAMRQDYLHQVFEKEIDIAIANYEKLWAALGDKIDVVLTCGTDFGSQESQFCSIDTFRELWLPHYRRMNDWIHQHTTWKIFKHSCGAIIPILPGLIEAGFDIINPVQINAKDMDSRRLKEEFGSQLTFWGGGVDTQKILPFGTPDEIRRHVMGQCEILGRDGGFVFNAVHNVQANVPVDNVVAMFDALKDISLEHHHHHH | failed
MNRVKDKRLWLSIVGITGLGLLSGLFSVNAREYYQALRLPSFAPPGWLFGPVWLVLYIFMGITFYFILVHPNKQQKKRMITLFILQFIANFFWTFFFFSLQNNLLSVIDISLLWLLLIIQQWDYLRYKLITRGWLMIPYILWVTFAAALNYSILFLN | not failed
MNSCVLFAEVIQGPELRYTQENQMAVATMVVQFASLRSEEPPMSLRTVAWGNLGQKMHAECKVGDRLILEGRLKMDTIDRPEGFKEKRAELVVSRFYTVDGNIVDHPAQPAATVPVTPRVAPPPPEFEDISLDEVPFLEHHHHHH | not failed
MNSEKDVMADASAMRTSMHALAVYGATPLFVLLWSGGAIFSRVGLSHASPFAFLTLRFVIALPLLAAIGVARRCMLPAPGTRVRVAVTGALMIGGYSISYLLALDFGMTPGVLATVLGVQPILTLLWMERRVSVARLAGLTLALAGLVTIVADSLMAARFSMAGWGAALAALACMTVGAIGQKGIRQAAVEILPLQYTVALAMCLLCVPFQPFRFEHVPGFFFPLLWMGIVISVVATLLFYRLIQAGNLVNVTSLFYLVPPVTVLLDFVALSNRPAPLALVGMIAIPVGLALAFRAGR | failed
MNSELFQKLAKAQTDEERSWIVTESLLATLSPELAAAAWAAVVPHWFNAEILAALRPELQAQSSQLYTKLQALSFVEEFADRGHDVHDLTRNLMLKHLWQEHQDEFITLSQRAAEYFGRNNQQPETQIEWLYHLIVVDREWKGSEFWNLAQNWDNSFRVAELESLIAALLEQIAAERVETLAKAEVYYWAGKAKFRVYKAKEALERYEEALAFYRNIGVSEAPPVEARLGEANTLQAIGDVLQFLDRRTEALERYEEALAFYRDIGDRLGEANTLRAIGDVLQFLDRRTEALERYEEALAFYRDIGARLGEANTLQAIGDVLQFLKRSTEALERYEEALAFYRDIGDRLGEANTLRAIGDVLQFLDRRTEALERYEEALAFYRDIGARLGEANTLKAIGDVLQFLKRSTEALERYEEALAFYRDIGARLGEANTLRAIGDVLQFLDRRTEALERYEEALAFYRDIGDRLGEANTLRAIGDVLQFLKRSTEALERYEEALAFYRDIGDRLGEANTLRAIGDVLQFLKRSTEALERYEEALAFYRDIGDRLGEANTLQAIGILQDDLTVGLEYCQAALELYRQIGTKYSQSRNLIYFTSTILLKLERQTEAIDALNRAIELAKEIPYQYFVEDALAKLKKIQSSDSNI | failed
MNSFPAQNLMLSATNANKDSGLRTSNAHWLHSCIAVPKTTGIDLSQEPPAEGVMVPQSHLFPPPIRDSRNDTETVKQKSVNQSPSKALKPKPQRKKRSVSNKSKKTPSIPETKREKKNLDINIDISSFDTSGVPPPVCSCTGVSRVCYKWGMGGWQSSCCTISISTYPLPMSTTRPGARLAGRKMSNGAYVKLLARLADEGYDLSHPLDLKNHWARHGTNKFVTIK | failed
MNSFYSQEELKKIGFLSVGKNVLISKKASIYNPGVISVGNNVRIDDFCILSGKVTIGSYSHIAAYTALYGGEVGIEMYDFANISSRTIVYAAIDDFSGNALMGPTIPNQYKNVKTGKVILKKHVIIGAHSIIFPNVVIGEGVAVGAMSMVKESLDDWYIYVGVPVRKIKALEHHHHHH | not failed

— a protein production outcome set (Wang et al. 2014)
